Source: US20120076826A1

What was measured:
[1] = target: recombinant Can f 4 (dog); assay: experimental rCan f 4 ImmunoCAP
[2] = target: IgE of Bos d 23k-reactive serum A; assay: ImmunoCAP IgE inhibition; serum preincubated with 100 µg/mL rCan f 4, Bos d 23k immobilized
[3] = target: IgE of Bos d 23k-reactive serum B; assay: as above
[4] = target: IgE of Bos d 23k-reactive serum C; assay: as above

allergen specific IgE antibody [1] [kUA/L]	percent inhibition of IgE binding to Bos d 23k [2] [%]	percent inhibition of IgE binding to Bos d 23k [3] [%]	percent inhibition of IgE binding to Bos d 23k [4] [%]	Molecule
0.023	–	–	–	myeloma IgE (antibody)
–	> 96	> 96	> 96	recombinant Can f 4 (protein, not shown: small tags and cut ends, N-terminal Met; C-terminal His6 tag) QLPLPNVLTQVSGPWKTLYISSNNLDKIGDNGPFRIYMRGINVDIPRLKMSFNFYVKVDGECVENSVGASIGRDNLIKGEYNGGNYFRIIDMTPNALIGYDVNVDSKGKITKVALLMGRGAHVNEEDIAKFKKLSREKGIPEENIIYLGDTDNCPNHE
